From publication doi:10.1101/2024.11.01.621267

Target: recombinant full-length RACK1 protein (ITC) (human) (UniProt P63244)
Assay: ITC; LARP4 peptide (400 μM; 300 μM for 600–625) injected into RACK1 (40 μM; 30 μM) in the cell; iTC200; 298K; 20 mM HEPES, 300 mM NaCl, 10% glycerol, 1 mM DTT pH 7.5; triplicate

HsLARP4 peptide 612–637 (from UniProt Q71RC2-1 612-637)
Kd: 2.1 µM | dH: -8.6 kcal/mol | stoichiometry N: 0.9
